# Assay results taken from paper PMC5454392, “Selective BET bromodomain inhibition as an antifungal therapeutic strategy” (Nature Communications, 2017).
# Square brackets hold non-standard residues; d marks the D form. Ends that are not written are not given here. Arg(Me2a) = CN(C)C(=N)NCCC[C@H](N)C(=O)O; Lys(Me3) = C[N+](C)(C)CCCC[C@H](N)C(=O)O; Arg(Me2s) = CN=C(NC)NCCC[C@H](N)C(=O)O; pT = C[C@@H](OP(=O)(O)O)[C@H](N)C(=O)O; Lys(Me2) = CN(C)CCCC[C@H](N)C(=O)O; pS = N[C@@H](COP(=O)(O)O)C(=O)O; Lys(Me) = CNCCCC[C@H](N)C(=O)O; Me2a = not defined here; me2a = not defined here
# T1: CaBdf1 BD2 (GST-tagged, wild-type) (Candida albicans (strain SC5314 / ATCC …, UniProt Q5A4W8))
# T1 chain: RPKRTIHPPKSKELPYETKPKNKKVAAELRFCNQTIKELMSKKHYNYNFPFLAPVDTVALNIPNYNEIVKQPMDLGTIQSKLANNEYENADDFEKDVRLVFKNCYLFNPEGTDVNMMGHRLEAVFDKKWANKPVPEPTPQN
# T2: CaBdf1 BD1 (GST-tagged, wild-type) (Candida albicans (strain SC5314 / ATCC …, UniProt Q5A4W8))
# T2 chain: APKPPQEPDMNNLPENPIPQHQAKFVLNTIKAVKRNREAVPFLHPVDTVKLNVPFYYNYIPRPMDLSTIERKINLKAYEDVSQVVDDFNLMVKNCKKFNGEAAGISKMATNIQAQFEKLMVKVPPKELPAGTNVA
# B1: H4 1-19 (peptide)
# chain: SGRGKGGKGLGKGGAKRHR
# modifications: not fully specified; histone peptide post-translational modifications (acetyl, methyl, phospho, citrulline) listed in columns 4-7 and embedded in the sequence text; N-terminus free or acetylated in column 8
# Target: T1, CaBdf1 BD2 (GST-tagged, wild-type)
# Assay: histone peptide array (Active Motif MODified), 1 uM GST-tagged bromodomain, anti-GST detection, normalized mean intensity
row,Binder,binding score
1,AR(Me2a)[pT]K(Ac)QTARKSTGGKAPRKQ (reading uncertain),0.00111
2,ARTKQTARKSTGGKAPRKQ (A R T K Q T A Rme2s Kac S pT G G K A P R K Q),0.00407
3,ARTKQTARKSTGGKAPRKQ (A Rme2s T Kme1 Q T A Rme2s Kme2 S T G G K A P R K Q),0.00333
4,ARTKQTA[Arg(Me2s)]K(Ac)[pS]TGGKAPRKQ,0.00296
5,ARTKQTARKSTGGKAPRKQ (A Rme2s pT Kme2 Q T A R K S T G G K A P R K Q),0.00333
6,ARTKQTARKSTGGKAPRKQ (A R T K Q T A R Kac pS T G G K A P R K Q),0.00407
7,[pS]GRGK(Ac)QGGK(Ac)ARAK(Ac)AKSRSS,0.00888
8,PRKQLATKAAR(Me2s)K(Ac)SAPATGG,0.00814
9,SGRGKQGGKARAK(Ac)AKSRSS,0.0141
10,ARTKQTA[Arg(Me2a)]K(Me)[pS]TGGKAPRKQ,0.00407
11,ARTKQTARKSTGGKAPRKQ (A R T Kac Q T A Rme2s Kme3 S T G G K A P R K Q),0.00407
12,ARTKQTARKSTGGKAPRKQ (A R pT Kme2 Q T A R K S T G G K A P R K Q),0.0037
13,SGRGKGGKGLGKGGAKRHR (S G R G K G G K G L G K G G A Kac R H R),0.00296
14,PRKQLATKAARKSAPATGG (not fully specified),0.00111
15,A[Arg(Me2a)]TK(Ac)QTARKSTGGKAPRKQ,0.00148
16,ARTKQTARKSTGGKAPRKQ (A R T K Q T A R K S pT G G K A P R K Q),0.00037
17,ARTKQTARKSTGGKAPRKQ (A R T K Q T A Rme2s Kme3 S pT G G K A P R K Q),0.0037
18,SGRGKGGKGLGKGGAKRHR (pS G Rme2a G K G G K G L G K G G A K R H R),0.00148
19,ARTKQTARKSTGGKAPRKQ (A R T Kac Q T A Rme2a Kme3 S T G G K A P R K Q),0.00592
20,A[Arg(Me2a)]T[Lys(Me2)]QTA[Arg(Me2s)][Lys(Me2)]STGGKAPRKQ,0.00666
21,PRKQLATKAAR(Me2s)K(Me3)[pS]APATGG,0.00629
22,A[Arg(Me2a)]T[Lys(Me3)]QTA[Arg(Me2a)][Lys(Me)]STGGKAPRKQ,0.00851
23,ARTKQTARKSTGGKAPRKQ (A Rme2s T Kme3 Q T A R K S T G G K A P R K Q),0
24,ARTKQTARKSTGGKAPRKQ (A Rme2a T Kme3 Q T A Rme2s Kac S T G G K A P R K Q),0.0037
25,R[Arg(Me2s)]K[Lys(Me)]K(Ac)R[Arg(Me2a)][Lys(Me2)]K[Lys(Me3)]R[Lys(Me)][Arg(Me2s)]KK(Ac)RK [background 02],0.00444

row,Binder,binding score
1,AR(Me2a)TK(Me3)QTARK(Me2)STGGKAPRKQ (reading uncertain),0.00296
2,AR(me2a)TK(Ac)QTAR(me2a)K(Me)STGGKAPRKQ (reading uncertain),0.00888
3,SGRGKGGKGLGKGGAKRHR (pS G Rme2s G K G G K G L G K G G A K R H R),0.00333
4,ARTKQTARKSTGGKAPRKQ (A Rme2a T Kac Q T A Rme2a K S T G G K A P R K Q),0.00592
5,ARTKQTARKSTGGKAPRKQ (A Rme2a T Kme2 Q T A Rme2s Kme1 S T G G K A P R K Q),0.0037
6,ARTKQTARKSTGGKAPRKQ (A Rme2s T Kac Q T A Rme2s Kac S T G G K A P R K Q),0.00629
7,ARTKQTARKSTGGKAPRKQ (A R T Kme2 Q T A Rme2a Kme1 S T G G K A P R K Q),0.00666
8,SGRGKGGKGLGKGGAKRHR (S G R G K G G Kac G L G Kac G G A Kac R H R),0.16
9,PRKQLATKAA[Arg(Me2a)]K(Me)SAPATGG,0.00444
10,PRKQLATKAAR(Me2s)K(Me)[pS]APATGG,0.00259
11,PRKQLATKAARK(Me)[pS]APATGG,0.00333
12,ARTKQTARKSTGGKAPRKQ (A Rme2a T Kac Q T A Rme2s Kme1 S T G G K A P R K Q),0.00296
13,SGRGK(Ac)QGGK(Ac)ARAKAKSRSS,0.0133
14,PRKQLATKAAR(Me2s)K(Me)SAPATGG,0.00296
15,PRKQLATKAARK(Me3)[pS]APATGG,0.00074
16,SGRGKQGGKARAKAKSRSS (not fully specified),0.00259
17,AR(Me2s)TK(Ac)QTARKSTGGKAPRKQ,0.00074
18,RKSAPATGGVKKPHRYRPG (R K S A P A T G G V Kme3 K P H R Y R P G) [H3 26-45],0.00777
19,[pS]GRGK(Ac)QGGKARAKAKSRSS,0.0215
20,B1,0.00999
21,ARTKQTARKSTGGKAPRKQ (A Rme2a T Kme1 Q T A Rme2a Kac S T G G K A P R K Q),0.00333
22,ARTKQTA[Arg(Me2a)]K(Ac)[pS]TGGKAPRKQ,0.00407
23,ARTKQTARKSTGGKAPRKQ (A Rme2a T Kme2 Q T A Rme2s Kac S T G G K A P R K Q),0.00333
24,SGRGKGGKGLGKGGAKRHR (S G Rme2a G Kac G G Kac G L G K G G A K R H R),0.0411
25,ARTKQTARKSTGGKAPRKQ (A Rme2a T Kme3 Q T A Rme2a Kac S T G G K A P R K Q),0.00999

# Target: T2, CaBdf1 BD1 (GST-tagged, wild-type)
# Assay: as above
row,Binder,binding score
1,AR(Me2a)[pT]K(Ac)QTARKSTGGKAPRKQ (reading uncertain),0.00943
2,ARTKQTARKSTGGKAPRKQ (A R T K Q T A Rme2s Kac S pT G G K A P R K Q),0.00363
3,ARTKQTARKSTGGKAPRKQ (A Rme2s T Kme1 Q T A Rme2s Kme2 S T G G K A P R K Q),0.00254
4,ARTKQTA[Arg(Me2s)]K(Ac)[pS]TGGKAPRKQ,0.00363
5,ARTKQTARKSTGGKAPRKQ (A Rme2s pT Kme2 Q T A R K S T G G K A P R K Q),0.00363
6,ARTKQTARKSTGGKAPRKQ (A R T K Q T A R Kac pS T G G K A P R K Q),0.00435
7,[pS]GRGK(Ac)QGGK(Ac)ARAK(Ac)AKSRSS,0.0515
8,PRKQLATKAAR(Me2s)K(Ac)SAPATGG,0.0123
9,SGRGKQGGKARAK(Ac)AKSRSS,0.0943
10,ARTKQTA[Arg(Me2a)]K(Me)[pS]TGGKAPRKQ,0.00326
11,ARTKQTARKSTGGKAPRKQ (A R T Kac Q T A Rme2s Kme3 S T G G K A P R K Q),0.00689
12,ARTKQTARKSTGGKAPRKQ (A R pT Kme2 Q T A R K S T G G K A P R K Q),0.00326
13,SGRGKGGKGLGKGGAKRHR (S G R G K G G K G L G K G G A Kac R H R),0.0149
14,PRKQLATKAARKSAPATGG (not fully specified),0.00798
15,A[Arg(Me2a)]TK(Ac)QTARKSTGGKAPRKQ,0.00363
16,ARTKQTARKSTGGKAPRKQ (A R T K Q T A R K S pT G G K A P R K Q),0.00326
17,ARTKQTARKSTGGKAPRKQ (A R T K Q T A Rme2s Kme3 S pT G G K A P R K Q),0.00399
18,SGRGKGGKGLGKGGAKRHR (pS G Rme2a G K G G K G L G K G G A K R H R),0.00471
19,ARTKQTARKSTGGKAPRKQ (A R T Kac Q T A Rme2a Kme3 S T G G K A P R K Q),0.0087
20,A[Arg(Me2a)]T[Lys(Me2)]QTA[Arg(Me2s)][Lys(Me2)]STGGKAPRKQ,0.0029
21,PRKQLATKAAR(Me2s)K(Me3)[pS]APATGG,0.00109
22,A[Arg(Me2a)]T[Lys(Me3)]QTA[Arg(Me2a)][Lys(Me)]STGGKAPRKQ,0.00435
23,ARTKQTARKSTGGKAPRKQ (A Rme2s T Kme3 Q T A R K S T G G K A P R K Q),0.00363
24,ARTKQTARKSTGGKAPRKQ (A Rme2a T Kme3 Q T A Rme2s Kac S T G G K A P R K Q),0.0337
25,R[Arg(Me2s)]K[Lys(Me)]K(Ac)R[Arg(Me2a)][Lys(Me2)]K[Lys(Me3)]R[Lys(Me)][Arg(Me2s)]KK(Ac)RK [background 02],0.00906

row,Binder,binding score
1,AR(Me2a)TK(Me3)QTARK(Me2)STGGKAPRKQ (reading uncertain),0.00145
2,AR(me2a)TK(Ac)QTAR(me2a)K(Me)STGGKAPRKQ (reading uncertain),0.00761
3,SGRGKGGKGLGKGGAKRHR (pS G Rme2s G K G G K G L G K G G A K R H R),0.00508
4,ARTKQTARKSTGGKAPRKQ (A Rme2a T Kac Q T A Rme2a K S T G G K A P R K Q),0.00399
5,ARTKQTARKSTGGKAPRKQ (A Rme2a T Kme2 Q T A Rme2s Kme1 S T G G K A P R K Q),0.00399
6,ARTKQTARKSTGGKAPRKQ (A Rme2s T Kac Q T A Rme2s Kac S T G G K A P R K Q),0.041
7,ARTKQTARKSTGGKAPRKQ (A R T Kme2 Q T A Rme2a Kme1 S T G G K A P R K Q),0.0363
8,SGRGKGGKGLGKGGAKRHR (S G R G K G G Kac G L G Kac G G A Kac R H R),0.201
9,PRKQLATKAA[Arg(Me2a)]K(Me)SAPATGG,0.00399
10,PRKQLATKAAR(Me2s)K(Me)[pS]APATGG,0.00254
11,PRKQLATKAARK(Me)[pS]APATGG,0.0029
12,ARTKQTARKSTGGKAPRKQ (A Rme2a T Kac Q T A Rme2s Kme1 S T G G K A P R K Q),0.00471
13,SGRGK(Ac)QGGK(Ac)ARAKAKSRSS,0.0283
14,PRKQLATKAAR(Me2s)K(Me)SAPATGG,0.00435
15,PRKQLATKAARK(Me3)[pS]APATGG,0.0029
16,SGRGKQGGKARAKAKSRSS (not fully specified),0.0087
17,AR(Me2s)TK(Ac)QTARKSTGGKAPRKQ,0.00616
18,RKSAPATGGVKKPHRYRPG (R K S A P A T G G V Kme3 K P H R Y R P G) [H3 26-45],0.00761
19,[pS]GRGK(Ac)QGGKARAKAKSRSS,0.0156
20,B1,0.00725
21,ARTKQTARKSTGGKAPRKQ (A Rme2a T Kme1 Q T A Rme2a Kac S T G G K A P R K Q),0.0254
22,ARTKQTA[Arg(Me2a)]K(Ac)[pS]TGGKAPRKQ,0.00399
23,ARTKQTARKSTGGKAPRKQ (A Rme2a T Kme2 Q T A Rme2s Kac S T G G K A P R K Q),0.0435
24,SGRGKGGKGLGKGGAKRHR (S G Rme2a G Kac G G Kac G L G K G G A K R H R),0.0558
25,ARTKQTARKSTGGKAPRKQ (A Rme2a T Kme3 Q T A Rme2a Kac S T G G K A P R K Q),0.0392
